According to the supplement of paper PMC10724198:
± gives the standard deviation of the averaged measurements.

Experiments:
[1] = test system: Saccharomyces cerevisiae; assay: protein stability index of tFT-peptide fusion (C-terminal peptide) (PSI (0-1 scale)); higher = more stable (slower turnover); conditions: genetic background: wild type; temperature: 30 C
[2] = test system: Saccharomyces cerevisiae; assay: as above
Method: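 MPS profiling in S. cerevisiae of the tFT-X12 degron library: putative degron peptides plus stable controls, 12 aa, fused to the C-terminus of a sfGFP-mCherry timer. Cells are FACS-sorted into 8 mCherry/sfGFP bins and deep-sequenced. PSI runs from 0 (unstable) to 1 (stable). Backgrounds are wild type, das1Δ and doa10Δ at 30 °C, and wild type, das1Δ, cdc34-1 and cdc53-1 at 37 °C; 2-3 technical replicates each.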

[3] = genetic background: cdc34-1, temperature: 37 C
[4] = genetic background: cdc53-1, temperature: 37 C
[5] = genetic background: das1 deletion, temperature: 30 C
[6] = genetic background: das1 deletion, temperature: 37 C
[7] = genetic background: doa10 deletion, temperature: 30 C
[8] = genetic background: wild type, temperature: 30 C
[9] = genetic background: wild type, temperature: 37 C
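Further: PSI is a weighted mean of sequencing reads over stability bins, variants kept only with over 10 reads, mCherry proximal and sfGFP distal, peptide attached via GGGS linker.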

## CCMLCVVAWSGV
[1]
  protein stability index: 0.359 ± 0.0042
[2]; [3]
  protein stability index: 0.424 ± 0.044
[2]; [4]
  protein stability index: 0.517 ± 0.097
[2]; [5]
  protein stability index: 0.303 ± 0.027
[2]; [6]
  protein stability index: 0.5581 ± 0.0018
[2]; [7]
  protein stability index: 0.257 ± 0.0051
[2]; [8]
  protein stability index: 0.295 ± 0.056
[2]; [9]
  protein stability index: 0.524 ± 0.0054

## CCSGWSVRLLCV
[1]
  protein stability index: 0.37 ± 0.025
[2]; [3]
  protein stability index: 0.578 ± 0.066
[2]; [4]
  protein stability index: 0.606 ± 0.036
[2]; [5]
  protein stability index: 0.494 ± 0.033
[2]; [6]
  protein stability index: 0.625 ± 0.025
[2]; [7]
  protein stability index: 0.243 ± 0.0063
[2]; [8]
  protein stability index: 0.269 ± 0.024
[2]; [9]
  protein stability index: 0.375 ± 0.0046

## CCVLGDRCIGSD
[1]
  protein stability index: 0.678 ± 0.057
[2]; [3]
  protein stability index: 0.699 ± 0.018
[2]; [4]
  protein stability index: 0.735 ± 0.011
[2]; [5]
  protein stability index: 0.635 ± 0.013
[2]; [6]
  protein stability index: 0.76 ± 0.019
[2]; [7]
  protein stability index: 0.631 ± 0.013
[2]; [8]
  protein stability index: 0.655 ± 0.022
[2]; [9]
  protein stability index: 0.718 ± 0.013

## CFGIFWLFARLK
[1]
  protein stability index: 0.345 ± 0.059
[2]; [3]
  protein stability index: 0.281 ± 0.07
[2]; [4]
  protein stability index: 0.32 ± 0.03
[2]; [5]
  protein stability index: 0.289 ± 0.022
[2]; [6]
  protein stability index: 0.422 ± 0.0073
[2]; [7]
  protein stability index: 0.343 ± 0.018
[2]; [8]
  protein stability index: 0.274 ± 0.035
[2]; [9]
  protein stability index: 0.389 ± 0.035

## CFVWFSVVLLFA
[1]
  protein stability index: 0.194 ± 0.0056
[2]; [3]
  protein stability index: 0.109 ± 0.015
[2]; [4]
  protein stability index: 0.159 ± 0.0066
[2]; [5]
  protein stability index: 0.134 ± 0.028
[2]; [6]
  protein stability index: 0.227 ± 0.0053
[2]; [7]
  protein stability index: 0.136 ± 0.0019
[2]; [8]
  protein stability index: 0.117 ± 0.016
[2]; [9]
  protein stability index: 0.202 ± 0.014

## CFYSRTIILEHC
[1]
  protein stability index: 0.328 ± 0.015
[2]; [3]
  protein stability index: 0.503 ± 0.1
[2]; [4]
  protein stability index: 0.506 ± 0.0072
[2]; [5]
  protein stability index: 0.464 ± 0.0086
[2]; [6]
  protein stability index: 0.5003 ± 0.0025
[2]; [7]
  protein stability index: 0.23 ± 0.015
[2]; [8]
  protein stability index: 0.233 ± 0.028
[2]; [9]
  protein stability index: 0.34 ± 0.015

## CGCLPYIGTKLC
[1]
  protein stability index: 0.165 ± 0.0027
[2]; [3]
  protein stability index: 0.463 ± 0.076
[2]; [4]
  protein stability index: 0.711 ± 0.026
[2]; [5]
  protein stability index: 0.647 ± 0.028
[2]; [6]
  protein stability index: 0.766 ± 0.013
[2]; [7]
  protein stability index: 0.087 ± 0.036
[2]; [8]
  protein stability index: 0.117 ± 0.018
[2]; [9]
  protein stability index: 0.106 ± 0.012

## CHSICLVILEFI
[1]
  protein stability index: 0.274 ± 0.034
[2]; [3]
  protein stability index: 0.183 ± 0.0091
[2]; [4]
  protein stability index: 0.338 ± 0.049
[2]; [5]
  protein stability index: 0.25 ± 0.05
[2]; [6]
  protein stability index: 0.436 ± 0.011
[2]; [7]
  protein stability index: 0.183 ± 0.03
[2]; [8]
  protein stability index: 0.198 ± 0.028
[2]; [9]
  protein stability index: 0.384 ± 0.011

## CIFLLMAILSLA
[1]
  protein stability index: 0.411 ± 0.075
[2]; [3]
  protein stability index: 0.48 ± 0.055
[2]; [4]
  protein stability index: 0.558 ± 0.0093
[2]; [5]
  protein stability index: 0.363 ± 0.029
[2]; [6]
  protein stability index: 0.534 ± 0.023
[2]; [7]
  protein stability index: 0.2341 ± 0.00064
[2]; [8]
  protein stability index: 0.27 ± 0.025
[2]; [9]
  protein stability index: 0.427 ± 0.0079

## CIIAVMISIVSF
[1]
  protein stability index: 0.0807 ± 0.031
[2]; [3]
  protein stability index: 0.0342 ± 0.0065
[2]; [4]
  protein stability index: 0.0959 ± 0.012
[2]; [5]
  protein stability index: 0.0327 ± 0.018
[2]; [6]
  protein stability index: 0.14 ± 0.035
[2]; [7]
  protein stability index: 0.02686 ± 0.00016
[2]; [8]
  protein stability index: 0.0274 ± 0.0082
[2]; [9]
  protein stability index: 0.0917 ± 0.023

## CILVSVDVIVFF
[1]
  protein stability index: 0.212 ± 0.005
[2]; [3]
  protein stability index: 0.0529 ± 0.014
[2]; [4]
  protein stability index: 0.147 ± 0.043
[2]; [5]
  protein stability index: 0.118 ± 0.051
[2]; [6]
  protein stability index: 0.207 ± 0.0033
[2]; [7]
  protein stability index: 0.103 ± 0.016
[2]; [8]
  protein stability index: 0.136 ± 0.026
[2]; [9]
  protein stability index: 0.166 ± 0.036

## CLAGALSWLRRG
[1]
  protein stability index: 0.732 ± 0.018
[2]; [3]
  protein stability index: 0.704 ± 0.034
[2]; [4]
  protein stability index: 0.7646 ± 0.006
[2]; [5]
  protein stability index: 0.662 ± 0.015
[2]; [6]
  protein stability index: 0.745 ± 0.022
[2]; [7]
  protein stability index: 0.637 ± 0.013
[2]; [8]
  protein stability index: 0.646 ± 0.019
[2]; [9]
  protein stability index: 0.703 ± 0.022

## CLLLFFIFLLFL
[1]
  protein stability index: 0.41 ± 0.05
[2]; [3]
  protein stability index: 0.484 ± 0.065
[2]; [4]
  protein stability index: 0.452 ± 0.0092
[2]; [5]
  protein stability index: 0.387 ± 0.036
[2]; [6]
  protein stability index: 0.463 ± 0.032
[2]; [7]
  protein stability index: 0.49 ± 0.026
[2]; [8]
  protein stability index: 0.376 ± 0.024
[2]; [9]
  protein stability index: 0.493 ± 0.029

## CLLLILCFLCVR
[1]
  protein stability index: 0.359 ± 0.026
[2]; [3]
  protein stability index: 0.382 ± 0.0078
[2]; [4]
  protein stability index: 0.355 ± 0.017
[2]; [5]
  protein stability index: 0.343 ± 0.021
[2]; [6]
  protein stability index: 0.4415 ± 0.00095
[2]; [7]
  protein stability index: 0.364 ± 0.028
[2]; [8]
  protein stability index: 0.321 ± 0.02
[2]; [9]
  protein stability index: 0.401 ± 0.016

## CLRFVFWFVCFV
[1]
  protein stability index: 0.27 ± 0.087
[2]; [3]
  protein stability index: 0.227 ± 0.047
[2]; [4]
  protein stability index: 0.238 ± 0.0095
[2]; [5]
  protein stability index: 0.254 ± 0.03
[2]; [6]
  protein stability index: 0.351 ± 0.0079
[2]; [7]
  protein stability index: 0.268 ± 0.0087
[2]; [8]
  protein stability index: 0.186 ± 0.01
[2]; [9]
  protein stability index: 0.231 ± 0.018

## CLVISVLFGVVA
[2]; [3]
  protein stability index: 0.2376 ± 0.00026
[2]; [4]
  protein stability index: 0.269 ± 0.067
[2]; [5]
  protein stability index: 0.218 ± 0.034
[2]; [6]
  protein stability index: 0.382 ± 0.0091
[2]; [7]
  protein stability index: 0.1782 ± 0.0014
[2]; [8]
  protein stability index: 0.21 ± 0.016
[2]; [9]
  protein stability index: 0.326 ± 0.0065

## CLYATQFWGRYG
[1]
  protein stability index: 0.434 ± 0.07
[2]; [3]
  protein stability index: 0.69 ± 0.062
[2]; [4]
  protein stability index: 0.74 ± 0.019
[2]; [5]
  protein stability index: 0.629 ± 0.025
[2]; [6]
  protein stability index: 0.7737 ± 0.005
[2]; [7]
  protein stability index: 0.229 ± 0.0079
[2]; [8]
  protein stability index: 0.258 ± 0.033
[2]; [9]
  protein stability index: 0.6 ± 0.014
